The text below walks through data of publication PMC4477602 (Journal of Biological Engineering, 2015).

The experiment has as its target T1, Wild type Clone A, soluble, C-terminal His6.
T1 chain: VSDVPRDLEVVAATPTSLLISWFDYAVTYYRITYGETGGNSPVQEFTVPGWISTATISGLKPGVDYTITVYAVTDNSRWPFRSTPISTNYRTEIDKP
In words: SEC; Superdex 75 10/300 GL, PBS pH 7.4, samples after Co2+ affinity resin; self-association (monomer, dimer, high MW oligomer in the void volume). The settings on record: both partners purified.

B1: Wild type Clone A, soluble, C-terminal His6 (designed binder)
chain: VSDVPRDLEVVAATPTSLLISWFDYAVTYYRITYGETGGNSPVQEFTVPGWISTATISGLKPGVDYTITVYAVTDNSRWPFRSTPISTNYRTEIDKP
modifications: Glu47 (printed 45) taken from the text's description of wild type CA; Fig. S2 prints Asp / Glu47 (printed 45) taken from the text's description of wild type CA; Fig. S2 prints Asp
In the case of B1, the “stoichiometry N” value stood at 2.
